Experimental data: paper PMC7076015, “An epilepsy-associated mutation in the nuclear import receptor KPNA7 reduces nuclear localization signal binding”

T1: MBP-CTCF(F4-F8) (Homo sapiens, UniProt P49711 351-489)
T1 sequence: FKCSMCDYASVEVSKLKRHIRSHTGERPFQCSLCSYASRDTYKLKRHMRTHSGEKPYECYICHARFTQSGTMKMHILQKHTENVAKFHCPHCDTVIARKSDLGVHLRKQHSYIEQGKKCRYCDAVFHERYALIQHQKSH


Columns and labels:
MBP-CTCF(F4-F8) [1] = target: T1, MBP-CTCF(F4-F8); experiment: fluorescence anisotropy; 100 uM ZnCl2; apparent KD; 20 mM Tris pH 8, 200 mM KCl, 100 uM ZnCl2, 1 mM DTT, 25 C; 10 nM dsDNA, MBP-CTCF up to 34.5 uM; conditions: protein: recombinant; tags: MBP (N-terminal, pMAL-c2g); label: 6-FAM at 5' end of reverse strand; blunt
MBP-CTCF(F4-F8) [2] = target: T1, MBP-CTCF(F4-F8); experiment: fluorescence anisotropy; 100 uM ZnCl2; apparent KD, fit bounds fixed to WT; above top protein concentration 34.5 uM; 20 mM Tris pH 8, 200 mM KCl, 100 uM ZnCl2, 1 mM DTT, 25 C; 10 nM dsDNA, MBP-CTCF up to 34.5 uM; conditions: protein: recombinant; tags: MBP (N-terminal, pMAL-c2g); label: 6-FAM at 5' end of reverse strand; blunt

Binder | Kd (MBP-CTCF(F4-F8) [1]) | Kd (MBP-CTCF(F4-F8) [2])
KPNA7 exon 7 CTCF motif WT (dsDNA) DNA 1: ATCCAGAAGGAGGCAG DNA 2: CTGCCTCCTTCTGGAT | 1.76 ± 0.084 µM | –
KPNA7 exon 7 CTCF motif c.1030G>C (dsDNA) DNA 1: ATCCAGAAGCAGGCAG DNA 2: CTGCCTGCTTCTGGAT | – | 76 ± 16.2 µM
